Test results from the DeepSol protein solubility set.

assay: soluble on expression in E. coli; label from the status in PepcDB or PDB records

Soluble on expression in E. coli, not soluble:
MGSDKIHHHHHHMKKAVLIVNPSSGGEKAKEFETLAEEKLKQLFDEVVVKQTEKGGDAEQFAREAAESHFDSVFVMGGDGTVNEGISGLAEQAYRPKFGFFPLGTVNDLARALNLPMDPEEAIQQLDLEKTSALDVGKINDDYFMNVVAIGTIPESINDVDVEQKTKLGKLAYFISGAKHLANAQTYPFHLSLDQKEQTIESSTVLVGLTNSIGGFETLLPEAQVDDGKLHLVYLKDQSLWDAVKAVPDLLKGVDQSTDNLVYLTFKEGTISLENQEELTTNVDGDEGAALPITLKILPKHLTVYCGEEQTK, MGSDKIHHHHHHMKKFVCSNCGYVSPKWFGRCPQCGEYDTAEEVQRRKNREGSPSLFLNLEDAGEISLERLSTGFSELDRAFRGGIVPGQVILLSGEPGIGKSTIALQIAERFAERGLVVYVSGEESPQQLKLRADRLLLKRKKDILLTLENDIDEIISSLQNKRVSFMVVDSIQTVFSSDLGSSPGSISQVKNVTMKTIDFAKRRGVPVLLVGHVTKEGEIAGPKLVEHMVDTVAYFEGDRRTGLRLLKITKNRFGPSDEVAVFELKENGFVQVENPSFTEGDADLPGNVLTCVFEGTKPFVVQIQALVSKNRTFSPKRVCKGVDVNRVMLLIAVISKYLKLPIETHDVYVNVVGGLRVTDPAADLAIALSIVSSYLEVSLHNTAAVGEIGLDGRVRKVYNINRRLNSLKSSGRIIVPPIEEEQKGVFEVRDLKEAVSIIGGEILGTPGAD, MGSDKIHHHHHHMKKGIQLVALLLTVVMSSCTGGKDKAAVKQEDEKPRVKVADVTARPVDQIQDYTATVEAEVKNNIAPSSPVRIDRILVEVGDRVSKGQKLVQMDAANLTQTKLQLDNQKIEFNRIDELYKVGGASKSEWDAAKMQLDVKQTAYDNLVENTFLLSPINGVITARNYDNGDMYSGGSPVLVVEQITPVKLMINVSETYFTKVKKGEPVDVKLDVYGDELFKGTISLIYPTIDATTRTFQIEIKLDNKDQRVRPGMFARATLNFGTADNVVVPDLAIVKQAGSGDRYVYVYKDGKVSYNKVELGRRMGSEYELKSGVPDNSQVVVAGQARLINGTEVEIEK, MGSDKIHHHHHHMKKIAVLTSGGDAPGMNAAVRAVVRYGVRQGLEVIGVRRGYSGLIDGDFVKLEYKDVAGITEKGGTILRTSRCEEFKTEEGRELAAKQIKKHGIEGLVVIGGEGSLTGAHLLYEEHKIPVVGIPATIDNDIGLTDMCIGVDTCLNTVMDAVQKLKDTASSHERAFIVEVMGRHSGYIALMAGLVTGAEAIIVPEIPVDYSQLADRILEERRRGKINSIIIVAEGAASAYTVARHLEYRIGYETRITILGHVQRGGSPTAFDRRLALSMGVEAVDALLDGEVDVMIALQGNKFVRVPIMEALSTKKTIDKKLYEIAHMLS, MGSDKIHHHHHHMKKIGHRIKTRRKLKGLTQEALGLAVGVSKVSVSSWELGKNSMHPELLNKVAGVLGVDAHWLLTGESFATLEDEKDSVFWAPKYKNIKAAAGAGCCHDDCLDEDEDEVPIPIKFVKNQTNKDQIFCVCVSGDSMEPVLSDGSIIAMNSSDTIIKDGKMYLVKQDDLLRVKVIHLLPKDMVLKSYNPNFKDETYNIKKDNIQILGRVFWFTSGR, MGSDKIHHHHHHMKKLFVLFLAVLSVLVLAEVKNPDTIIDATIGEPDTLDPHFAYDTASGEVIYNVYENLIAYKGESLTEFEPRLAERWEILDDGKTYKFYIRKGVKFHEGGDLTPEDVEYSFERGLIFDPTAGPMWMLWEALFGVDSLETFVEEKIGKPYSELFDENGEPLPEYRDALIKIYTDYIDPAIEVEGDAVVFHLVRPFAPFMYILAQSASWSAVLDKEWCIEIGCWDGRADTWWKYHDIRKEDSPLYARMNGTGPFKFVEWDRAQQKVILERNDNYWREPAKIKRVIIWGIDEWSTRRAMFLQGDADICAVPTQYLEQVEGKPGVTVVKGLPELAVTSLHFAWNVPEDSKYIGSGKLDGNGIPPDFFSDENVRKAFIYAFDYDTFINEVLKGLGRKIPTDLPEGLLGFNEELLNDPDAPHFDIVKATEYFKKAWNGEVWKKGFKITLLYNTGNEVRRQAAEMLKAYIEMINPKFKVEVRGVQWPTYLDATKRGEVPAFIIGWLADYPDPHNFIFTYYHSAGVYSGRQGENFRKFVSTPHPDLGGRSLDELIEEAIAKTDPAERQALYEEIQRFAMKHALGMPLYQPLGVRVQRSWVKGWYHNPMRPGDDYYVLWKAEE, MGSDKIHHHHHHMKKLRELTVEELFESFVLIKNADVRVAKNGKKFIAFTFQDTSGTIDGKYWDASEDEITRFTAGNVVLLNGKREVYQNKPQVKILHMRLATAEEPSQPSLYMERAPLKKEEMVEEINQVIFEITNAHWNRIVRYLMTKYQQEFYEFPAAKRNHHAFANGLAYHTVSMLRLGKAIAKEYTEINTSLLYAGIILHDLGKVLELSGAITTEYTVAGNLIGHLVLVDEEITKACLALKIDDREEDVVVLRHMVLAHHGLLEYGSPVRPRIMEAEILHQIDTMDASIQMMLGAIRQTQPGEYTERIFGLDNRSFYVPKDK, MGSDKIHHHHHHMKKSIVVFEVEGGSDKHFDGHRKDTMPIVNSINDAGWQAEVVYYRPEWTEGLFEYVSENFDGYISRVNPGNIPGGERGYFDLLTRLSEAGLVGMSTPEEMMAYGAKDALVKLSQTDLVPSDTEAYYDVETFHKVFPTSLSFGERVLKQNRGSTGSGIWRVQLVDKELAASIEPGTALPLDTEIKCTEAVDNHTEVRKLGEFMDFCDQYIIGDNGMLVDMRFMPRIVEGEIRILLVGPHPVFVVHKKPAEGGDNFSATLFSGAKYTYDKPEQWQELIDLFADARPVIAEKLGGDNIPLIWTADFMLGDVVDGKDTYVLGEINCSCVGFTSELDMGIQQLVASEAIKRIEEFAQLTV, MGSDKIHHHHHHMKKTPKLSVQLWSVKDAINQDFNGTLKTLSNMGFDGVEFAGELGSYANDAKALKLFLDSIDLKASGAHVSFEQLDQDNFQKTVDFYHQLQVDTLIIGLDDRSWHPQGIEEVVKLLNQLDTKLDPYNIKTGFHNHEHEFDNFKGTTYWDYLAMNTKDSVVLQQDVGWTTYAGKDAVEYVYKYPNRSFTTHYRVCIPEGVKGKQPIIGRDTIDWLRLLKANINVGGTKWIVVEQDVYPNGMSSLAAVALSKNGLEQYIDKL, MGSDKIHHHHHHMKKYHYSQAPLPFVGQKRMFASEFRKVLKRFSDRTVFVDLFGGSGLLSHITKRERPDATVIYNDHDNYRERLENISRTNALLSDLRRLSEGIPRHRMLSKKMHGMFLERIRREESTGFVDYLTISSSLLFSGKYARNIGELGKLNFYNNMRLSDYCCEGYLDGLEVVYCDYRELVDRYRDSPDVVFLIDPPYMATDISTYRMDWKLTDYLDVLLVLEGHPFIYFTSGKSPILDFCRWMEEHPETGNPFKGAGISTLTARMNYSSSYTDIMLYKEMTEAA, MGSDKIHHHHHHMKLEELNSKYNAFITLHTIEEGNDKGKLKDVTFGIKDVILTKDVRTTAGSRVLENYVPQRNAYVVDAILREGGKIIGKTNTHEFALGATNTSSIGGPARNPVDPERISGGSSGGSAVAVKLDMVDVGIGTDTGGSVRIPSSLCGVIGFKPTTGLIPNDGVIPFSWSLDTVGIIVKDNIRLLRRVFDVVLPNEKRKVEIAKLRTRPRLGLFLFDDMEVSRILLKDIYAKLSSHFDIVEVDLPLLRQYGSKTRRTISLAEAASYHKDWISEYSDKYFKDTYTLLLDGMKISATDYIDALRHRRVLIEEYVKVFKNIDFILSPTTKIVAPRISDVISNPLQFREYLIANTELFNVVGAPSISVPFSTLNDLPAGLMISGELYKDGDLLEVAEYILNIVGKH, MGSDKIHHHHHHMKLHYKKEHISCTNYKSESYEGFGIGTLTSGSNFNSQTLSVKTNFLIFILEGEVEIIPKEGKIKRVIAQEFFFISALSTYEIQVRVPGRYIYMSFLYNDIKLCEKHMLESYLKEVREASEEVGILSVRHPLNLFLELIDAYLRAGVNCKHLHSIKEKELFIILRTSYSKQEIVNLFHEIIGTNMSFKAAVLLHVDRVNNREELAQAMGMSITDLARKFKVEFGESVYSWLLKQKNKKIIYRLAQPGASVKEIVYEFGFSSAASFNKYCKKNFGNSPRELVRQLKDKHIDNQNLKI
